This is an account of results in patent publication US20050215503, “HIF oligonucleotide decoy molecules” (published 2005).

In series [1] the target is T1, HIF-1 (HIF-1alpha/HIF-1beta (ARNT) heterodimer) (UniProt Q16665;P27540 Q16665:1-826,P27540:2-789). Put plainly: competition; TransAM; two sites. The conditions noted are these: protein: extract; tags: none (endogenous, nuclear extract). As to the method: To assess the relative affinities of oligonucleotides for a HIF-1α containing complex, the HIF-1 TransAM assay (Active Motif, Catalog # 47096) was utilized. The assay was performed according to manufacturer's instructions. Briefly, a double-stranded oligonucletide containing the hypoxia response element (HRE) was immobilized on a 96-well plate. A nuclear extract containing HIF-1α complexes was incubated and allowed to bind to the immobilized oligonucleotide. The unbound material was washed away and the bound HIF-1α detected using an antibody that specificially recognizes HIF-1α. The anti-HIF-1α antibody was detected by a secondary antibody labeled with horseradish peroxidase (HRP), and the amount of HRP in each well was measured using a calorimetric substrate reaction and read using a microplate spectrophotometer.
The ability of candidate decoy molecules to compete for binding of HIF-1α to the HRE element-immobilized on the plate were measured and compared to reveal relative binding affinities. Candidate decoys were added in increasing molar ratios (relative to the amount of oligo immobilized on the plate) to compete for binding to the HIF-1α containing complexes. The amounts of decoys added to the assay included 0.625, 1.25, 2.5, 5, 10 and 20 fold molar excess. A well containing a competing decoy able to bind HIF-1α with high affinity would give a lower absorbance reading as compared to a decoy with low affinity for HIF-1α. All potential decoys were then compared and ranked in order to assess their relative binding affinities.
The screen was conducted using different decoy concentrations. For each UV absorbance reading, normalization was done by calculating the ratio of absorbance readings of sample vs. wild type control. The bigger ratio represents less competition of binding with HIF-1α when compared with wild-type control. The smaller (smaller than 1.0 or close to 1.0) ratios represent better binding or better competition.

The target of series [2] is T1, HIF-1 (HIF-1alpha/HIF-1beta (ARNT) …). Put plainly: competition; TransAM absorbance ratio vs wild-type control at 2.5; lower = better (all Table 2B lines); 1.22 in Table 5. Particulars: protein: extract; tags: none (endogenous, nuclear extract).

T1 sequence (Q16665 whole entry, chain 1 of 2): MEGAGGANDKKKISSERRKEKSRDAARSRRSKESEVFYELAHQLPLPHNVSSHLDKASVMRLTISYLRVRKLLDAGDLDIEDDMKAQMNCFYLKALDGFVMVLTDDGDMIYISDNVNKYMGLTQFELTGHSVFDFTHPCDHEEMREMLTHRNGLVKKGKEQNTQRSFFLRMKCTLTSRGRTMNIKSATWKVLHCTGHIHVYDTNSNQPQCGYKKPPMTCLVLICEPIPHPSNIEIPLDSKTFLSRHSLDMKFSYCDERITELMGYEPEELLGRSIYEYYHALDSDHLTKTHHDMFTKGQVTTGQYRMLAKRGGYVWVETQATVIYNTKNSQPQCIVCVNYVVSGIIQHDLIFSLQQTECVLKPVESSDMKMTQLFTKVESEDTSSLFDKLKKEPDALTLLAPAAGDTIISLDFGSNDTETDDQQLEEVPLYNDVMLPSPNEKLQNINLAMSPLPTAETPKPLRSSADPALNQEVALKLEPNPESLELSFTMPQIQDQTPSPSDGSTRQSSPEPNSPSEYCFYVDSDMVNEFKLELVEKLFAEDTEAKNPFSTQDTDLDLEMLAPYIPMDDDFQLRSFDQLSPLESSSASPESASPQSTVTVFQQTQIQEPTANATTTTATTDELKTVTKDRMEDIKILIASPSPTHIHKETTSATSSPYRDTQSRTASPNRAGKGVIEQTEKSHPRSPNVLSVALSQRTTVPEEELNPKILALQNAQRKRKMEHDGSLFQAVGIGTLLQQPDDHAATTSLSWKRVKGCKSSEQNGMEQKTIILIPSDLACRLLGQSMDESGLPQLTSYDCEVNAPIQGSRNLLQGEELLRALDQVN
T1 sequence (P27540 2-789, chain 2 of 2): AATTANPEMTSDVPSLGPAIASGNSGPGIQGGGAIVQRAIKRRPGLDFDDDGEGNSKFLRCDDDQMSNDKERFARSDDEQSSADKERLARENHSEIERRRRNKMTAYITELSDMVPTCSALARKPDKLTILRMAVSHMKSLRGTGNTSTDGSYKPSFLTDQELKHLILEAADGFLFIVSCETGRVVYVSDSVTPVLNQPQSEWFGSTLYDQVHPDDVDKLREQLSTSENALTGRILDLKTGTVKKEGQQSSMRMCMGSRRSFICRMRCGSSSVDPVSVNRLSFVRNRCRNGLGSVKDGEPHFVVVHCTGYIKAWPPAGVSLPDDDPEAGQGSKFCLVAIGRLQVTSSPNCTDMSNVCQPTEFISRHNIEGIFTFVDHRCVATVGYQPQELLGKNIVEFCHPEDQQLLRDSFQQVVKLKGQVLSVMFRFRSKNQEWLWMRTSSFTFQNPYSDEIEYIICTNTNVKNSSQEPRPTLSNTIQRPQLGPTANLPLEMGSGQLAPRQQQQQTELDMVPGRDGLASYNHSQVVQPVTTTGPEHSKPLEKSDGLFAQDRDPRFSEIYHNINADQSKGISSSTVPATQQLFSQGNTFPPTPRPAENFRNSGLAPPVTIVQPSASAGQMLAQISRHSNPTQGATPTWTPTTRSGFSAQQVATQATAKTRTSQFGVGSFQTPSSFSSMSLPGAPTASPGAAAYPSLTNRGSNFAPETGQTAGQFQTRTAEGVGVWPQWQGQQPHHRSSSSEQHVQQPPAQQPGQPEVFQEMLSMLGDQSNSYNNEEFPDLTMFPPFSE

B1: decoy 819/820 double (dsDNA)
DNA 1: GAAATACGTGCGCTTTGTGTGTACGTGCAGGAA
DNA 2: TTCCTGCACGTACACACAAAGCGCACGTATTTC
In series [1], B1 gave a binding signal of 1.16 ratio.

B2: decoy 907 double (dsDNA)
DNA 1: GAAATACGTGCGTGTGTACGTGCAGG
DNA 2: CCTGCACGTACACACGCACGTATTTC
In turn, B2 came in with a binding signal in series [1] of 0.91 ratio.

B3: decoy 841/842 double (dsDNA)
DNA 1: AGCGGACGTGCAGAAGTTGCACGTCCTCT
DNA 2: AGAGGACGTGCAACTTCTGCACGTCCGCT
For the molecule B3, the binding signal in series [1] came out at 0.99 ratio.

B4: decoy 857/858 double (dsDNA)
DNA 1: GCGGACGTGCGGGAACCCACGTGTAGG
DNA 2: CCTACACGTGGGTTCCCGCACGTCCGC
Molecule B4 had a binding signal in series [1] of 2.46 ratio.

B5: decoy 909 double (dsDNA)
DNA 1: AGCGGACGTGCAGATGCACGTCCTCT
DNA 2: AGAGGACGTGCATCTGCACGTCCGCT
Molecule B5 returned a binding signal in series [1] of 1.72 ratio.

B6: decoy 895/896 (dsDNA)
DNA 1: CACCAGCGTACGTGCCTCAGG
DNA 2: CCTGAGGCACGTACGCTGGTG
Consider B6, for which the binding signal in series [2] is 1.13 ratio.
